We go through 15 molecules from US20240409617A1 (published 2024).

The target in one assay is S1. The assay can be described thus: BLI.
The next assay deals with S1-biotin(ACRO). The assay can be described thus: BLI.

B1: Ab 38 (scFv, V domains shown)
VH: QVTLKESGPTLVKPTQTLTLTCTFSGFSLTTSGVSVGWIRQPPGKALEWLALIHWDDDKRYSPSLRSRLTITRDTSKNQVVLTVTDMDPADTGTYYCASFIMTVYAEYFEDWGQGTLVTVSS
VL: EIVLTQSPATLSVSPGERATLSCRASQSVSSNLAWYQQKPGQAPRLLMYDVSTRATGIPARFSGSGSGTEFSLTISSLQSEDFAVYYCQQRGAWPLTFGGGTKVEIK
B1 registered an equilibrium dissociation constant (Kd) with S1 of 0.22 nM.

B2: Ab 21 (scFv, V domains shown)
VH: QVQLVQSGGGLVQPGGSLRLSCATSGFTFDDYAMHWVRQAPGKGLEWVSGISWNSGSIGYVDSVKGRFTISRDNRNNKVYLQMNNLRAEDTAVYYCARDWWGSIDHWGLGTLVTVSS
VL: QSALTQPRSVSGSPGQSVTISCTGTSSDVGGYDYVSWYQQHPGKAPKLIIYDVSKRPSGVPDRFSGSKSGNTASLTVSGLQAEDEADYYCSSYTSSSPVVFGGGTKLTVL
Turning to B2, the Kd with S1 and with S1-biotin(ACRO) was 1.28 nM each time.

B3: Ab 8 (scFv, V domains shown)
VH: QVQLVQSGAEVKKPGSSVKVSCKASGGTFSSYAISWLRQAPGQGLEWMGWINPNSGGTNYAQKFQGRVTMTRDTSISTAYMELSRLRSDDTAVYYCARGSGGYYLGWGQGTLVTVSS
VL: QPGLTQPPSVSKGLRQTATLTCTGNSNNVGNQGAAWLQQHQGHPPKLLSYMNNNRPPGISERFSASRSGNTASLTITGLQPEDEADYYCSAWDSSLSRWVFGGGTKLSVL
B3 returned a dissociation constant Kd with S1 of 325 nM. That is a sub-micromolar value.

B4: Ab 39 (scFv, V domains shown)
VH: QVTLKESGPTLVKPTQTLTLTCTLSGVSLDTIGMRVSWIRQPPGKALEWLARIDWDDDKFYSTALKTRLTISKDTSKNQVVFTMTSMDPVDTATYYCARSGLLYDLDVWGRGTLVTVSS
VL: QSVVTQPPSVSGAPGQRVTISCTGSDSDIGANFVQWYQQLPGTAPKLLIWRNTNRPSGVPDRFSASKSGTSASLAITGLQAEDEADYFCQSYDSSLSAYVFGGGTKVTVL
Turning to B4, the Kd with S1 was less than 0.001 nM.

B5: Ab 16 (scFv, V domains shown)
VH: QVQLVQSGGGVVQPGRSLRLSCAASGFTFSNYGMHWVRQAPGKGLEWVALIWERGSKKDYADSVKGRFTVSRDNSKNTLYLQMNSLRPEDTAVYFCAREGISMTGAEYFQHWGQGTLVTVSS
VL: QSVLTQPPSVSGSPGQRVTMSCTGSSSNIGAGYDVHWYQQVPGAAPRLLIYGTNNRPSGVPDRFSGSKSGTSASLTITGLQAEDEADYYCQSYDNSLTDPYVFGTGTKVTVL
Regarding B5, the Kd in the assay with S1 and with S1-biotin(ACRO) was 2.18 nM each time.

B6: Ab 37 (scFv, V domains shown)
VH: QVQLVQSGAEVKKPGASVKVSCKASGYTFTSYGISWVRQAPGQGLEWMGWISTYNGNTNYAQKLQGRVTMTTDTSTSTAYMEVRSLRSDDTAVYYCARDVFGHFDYWGQGTLVTVSS
VL: NFMLTQPHSVSESPGKTVLISCTRSSGNIATNYVQWYQQRPGSAPTTVIYEDNQRPSGVPDRFSGSIDSSSNSASLTISGLKTEDEADYYCKSYDDGNHVFGGGTKLTVL
For the molecule B6, binding in the assay with S1 was characterised by a dissociation constant (Kd) of 0.907 nM.

B7: Ab 32 (scFv, V domains shown)
VH: QVQLVQSGAEVKKPGESLKISCKGSGYSFTSYWIGWVRQMPGKGLEWMGIIYPGDSDTRYSPSFQGQVTISADKSISTAYLQWSSLKASDTAMYYCARGWQWHDYWGQGTLVTVSS
VL: QTVVTQEPAVSVALGQTVRITCQGDSLRSYYASWYQQKPGQAPVLVVYDKDKRPSGIPDRFSGSTSGNTASLTITGAQAEDEADYYCNSRDRSDNHVVFGGGTKLTVL
Take B7: binding with S1 was characterised by a dissociation constant (Kd) of 0.168 nM.

B8: Ab 36 (scFv, V domains shown)
VH: QVQLQQSGPGLVKPSQTLSLTCAIFGDSVTSNSAAWNWIRQSPSRGLEWLGRTYYSSKWYNDYAVSVKSRVTINADTSKNQLSLQLNSVTPEDTAVYYCARGWLRLSFDPWGQGTLVTVSS
VL: NFMLTQPHSVSESPGKTVTISCTGSSGSIASNYVQWLQQRLGSAPTTVIYEDNQRPSGVPDRFSGSIDSSSNSASLTISGLKTEDEADYYCQSYDPNNHGVVFGGGTKLTVL
For B8, the dissociation constant Kd with S1 worked out at 0.0306 nM.

B9: Ab 34 (scFv, V domains shown)
VH: QVQLVQSGVEVKKPGESLKISCKGSGYSFTSYWIGWVRQMPGKGLEWMGIIYPGDSDTRYSPSFQGQVTISADKSISTAYLQWSSLKASDTAMYYCARTTYSYGSFDYWGQGTLVTVSS
VL: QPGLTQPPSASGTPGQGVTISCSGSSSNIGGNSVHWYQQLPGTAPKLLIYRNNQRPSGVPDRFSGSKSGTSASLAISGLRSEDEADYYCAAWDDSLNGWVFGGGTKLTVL
In the case of B9, binding with S1 was characterised by a dissociation constant (Kd) of 0.184 nM.

B10: Ab 18 (scFv, V domains shown)
VH: EVQLVQSGGGVVQPGRSLRVSCAASGFSFSRYGMHWVRQAPGKGLEWVAFIRHDGSKKYYADSVEGRFTISRDNSRNTVSLEMNSLRGEDTAVYYCAKDGRLEAALDDWGQGTLVTVSS
VL: NFMLTQPHSMSGSAGKTVTVSCIRSSGSIANNFVQWYQQRPGSAPTTVIYEDNQRPSGVPDRFSGSIDSSSNSASLTISGLKTEDEADYYCQSYDSSNLVFGGGTRLTVL
For the molecule B10, the Kd in the assay with S1 and in the assay with S1-biotin(ACRO) was 0.121 nM in each case.

B11: Ab 29 (scFv, V domains shown)
VH: QVQLQQSGPGLVKPSQTLSLTCAISGDSVSSYSDAWNWIRQSPSRGLEWLGRTYYRSKWYNDYAVSVKSRITINPDTSKNQFSLQLSSVTPEDTAVYYCAREIVATTPFRNYYYGMDVWGQGTTVTVSS
VL: NFMLTQPHSVSESPGNTVTISCTRTSGSIASNYVQWYQQRPGSSPTTVIFQDKLRPSGVPDRFSGSIDSSSNSASLTISGLKTEDEADYYCQSYDSSSLWVFGGGTKLTVL
In the case of B11, the equilibrium dissociation constant (Kd) with S1 was less than 0.001 nM.

B12: Ab 31 (scFv, V domains shown)
VH: QVQLVQSGAEVKKPGSSVKVSCKASGGTFSSYTISWVRQAPGQGLEWMGGIIPILGTPNYAQKFQDRVAITADKSTSTAYMELSSLRSEDTAVYYCAVGSGWYSGFDYWGQGTLVTVSS
VL: NFMLTQPHSVSESPGKTVTISCTGSSGSIASNYVQWYQQRPGSAPTTVIYEDSQRPSGVPDRFSGSIDSSSNSASLTISGLKTEDEADYYCQSFHNSNPVIFGGGTKLTVL
For the molecule B12, in the assay with S1, the Kd came to 2040 nM.

B13: Ab 20 (scFv, V domains shown)
VH: QVQLVQSGGGSVKPGGSLRLSCAASGYRLSDYYMHWVRQAPGKGLEWVANIKQDGSEKYYVDSVKGRFTISRDNAKNSLYLQMNSLRAEDTAVYYCARVRGWSRGYFDYWGQGTLVTVSS
VL: NFMLTQPHSVSESPGKTVTISCTGSSGSIASNYVQWYQQRPGSAPTTVIYEDNQRPSGVPDRFSGSIDSSSNSASLLISGLKTEDEADYYCQSYDSSNHWVFGGGTKLTVL
As to B13, the dissociation constant Kd in the assay with S1 and with S1-biotin(ACRO) was 5.01 nM in each case.

B14: Ab 13 (scFv, V domains shown)
VH: QVTLKESGPKLVKPTQTLTLTCTFSGFSLSTSGVGVGWIRQPPGKALEWLALIYWDDDKRYSPSLKSRLTIAKDTSKYQVVLTMTNMDPVDTATYYCARISGSGYFYPFDIWGQGTMVTVSA
VL: NFMLTQPHSVSESPGKTVTISCTRSSGSIASNYVQWYQQRPGSAPTTVIYEDNQRPSGVPDRFSGSIDSSSNSASLTISGLKTEDEADYYCQSYDSSNLWVFGGGTKLTVL
B14: the dissociation constant (Kd) with S1 and in the assay with S1-biotin(ACRO) was 1.14 nM each time.

B15: Ab 17 (scFv, V domains shown)
VH: QVQLVQSGGGVVQPGRSLRLSCAASGFTFDDYAMHWVRQVPGKGLEWVSGIDWNSGVIGYADSVKGRFTISRDNVKNSLYLQMNSLRTEDSALYYCAKDIGPGGSGSYYAFDIWGQGTTVTVSS
VL: QSALTQPASVSGSPGQSITISCTGTSSDVGGSKYVSWYQQHPGKAPKVMIYDVTKRPSGVPDRFSGSKSGNTASLTISGLQAEDEADYYCAAWDDSLNGVVFGGGTKLTVL
Regarding B15, the Kd with S1 and with S1-biotin(ACRO) was 0.716 nM throughout.
